# Results: the supplement of paper PMC9112550, “Optimization of the antimicrobial peptide Bac7 by deep mutational scanning” (BMC Biology, 2022)
# Tested on: Escherichia coli TOP10
# Assay: shrunken log2 fold change of peptide-encoding DNA abundance (4.5 h post-induction vs induction); higher = less antimicrobial activity (less host growth inhibition)
# Conditions: time post-induction: 4.5 h; library: site-saturation at positions 5, 18, 19, 20
# 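Also: peptides expressed intracellularly from a pBAD plasmid library in pooled LB shake-flask culture, induced with 0.3% L-arabinose, DNA abundance read by NGS, three biological replicates, DESeq2 with apeglm shrinkage.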
row,Sequence,shrunken log2 fold change
1,RRIRARPPRLPRPRPRPADYPRP,0.177
2,RRIRHRPPRLPRPRPRPIWHPRP,-0.327
3,RRIRDRPPRLPRPRPRPMVSPRP,-0.00166
4,RRIRVRPPRLPRPRPRPWINPRP,-0.565
5,RRIRGRPPRLPRPRPRPHNGPRP,0.0528
6,RRIRSRPPRLPRPRPRPHFEPRP,-0.325
7,RRIRERPPRLPRPRPRPMCPPRP,-0.0308
8,RRIRMRPPRLPRPRPRPFIFPRP,-0.233
9,RRIRNRPPRLPRPRPRPFNDPRP,-0.0288
10,RRIRNRPPRLPRPRPRPAGEPRP,0.507
11,RRIRQRPPRLPRPRPRPRTVPRP,0.349
12,RRIRERPPRLPRPRPRPSDGPRP,-0.166
13,RRIRKRPPRLPRPRPRPEEPPRP,3.09
14,RRIRGRPPRLPRPRPRPTVTPRP,1.34
15,RRIRWRPPRLPRPRPRPMDCPRP,-0.0839
16,RRIRDRPPRLPRPRPRPAYFPRP,0.128
17,RRIRPRPPRLPRPRPRPAKDPRP,-0.111
18,RRIRGRPPRLPRPRPRPPYHPRP,0.0679
19,RRIRLRPPRLPRPRPRPMEKPRP,0.0493
20,RRIRCRPPRLPRPRPRPYFHPRP,-0.233
21,RRIRHRPPRLPRPRPRPYDEPRP,-0.0392
22,RRIRLRPPRLPRPRPRPDKWPRP,0.0575
23,RRIRSRPPRLPRPRPRPRVTPRP,0.169
24,RRIRIRPPRLPRPRPRPYNIPRP,-0.257
25,RRIRARPPRLPRPRPRPDTFPRP,0.158

row,Sequence,shrunken log2 fold change
1,RRIRWRPPRLPRPRPRPCYTPRP,-0.382
2,RRIRNRPPRLPRPRPRPYFIPRP,-0.645
3,RRIRIRPPRLPRPRPRPGELPRP,-0.0665
4,RRIRHRPPRLPRPRPRPSITPRP,-0.569
5,RRIRSRPPRLPRPRPRPEAMPRP,1.09
6,RRIRNRPPRLPRPRPRPSKTPRP,-0.454
7,RRIRRRPPRLPRPRPRPIYTPRP,-0.176
8,RRIRQRPPRLPRPRPRPCPIPRP,0.0347
9,RRIRWRPPRLPRPRPRPLPLPRP,0.477
10,RRIRWRPPRLPRPRPRPQYVPRP,0.00889
11,RRIRERPPRLPRPRPRPCEEPRP,-0.125
12,RRIRIRPPRLPRPRPRPFINPRP,-0.365
13,RRIRIRPPRLPRPRPRPRYRPRP,-0.386
14,RRIRLRPPRLPRPRPRPIIQPRP,-0.439
15,RRIRQRPPRLPRPRPRPTQYPRP,-0.0342
16,RRIRQRPPRLPRPRPRPRIAPRP,0.111
17,RRIRERPPRLPRPRPRPHHCPRP,-0.0231
18,RRIRERPPRLPRPRPRPNRYPRP,-0.0565
19,RRIRERPPRLPRPRPRPEAIPRP,-0.0664
20,RRIRDRPPRLPRPRPRPYWSPRP,-0.503
21,RRIRWRPPRLPRPRPRPNDEPRP,0.0507
22,RRIRWRPPRLPRPRPRPVWEPRP,0.912
23,RRIRRRPPRLPRPRPRPLLVPRP,0.329
24,RRIRQRPPRLPRPRPRPVHHPRP,0.04
25,RRIRNRPPRLPRPRPRPYQTPRP,-0.00141

row,Sequence,shrunken log2 fold change
1,RRIRGRPPRLPRPRPRPFIMPRP,-0.285
2,RRIRPRPPRLPRPRPRPEIVPRP,0.0303
3,RRIRMRPPRLPRPRPRPNESPRP,0.923
4,RRIRCRPPRLPRPRPRPAFIPRP,0.0295
5,RRIRRRPPRLPRPRPRPSWVPRP,-0.223
6,RRIRKRPPRLPRPRPRPKNTPRP,-0.0285
7,RRIRTRPPRLPRPRPRPQHPPRP,0.0586
8,RRIRLRPPRLPRPRPRPIMCPRP,0.02
9,RRIRARPPRLPRPRPRPQETPRP,0.0762
10,RRIRERPPRLPRPRPRPAWLPRP,0.471
11,RRIRNRPPRLPRPRPRPYGEPRP,-0.16
12,RRIRKRPPRLPRPRPRPNWYPRP,-0.185
13,RRIRRRPPRLPRPRPRPIRNPRP,0.113
14,RRIRIRPPRLPRPRPRPHGCPRP,-0.282
15,RRIRFRPPRLPRPRPRPDEEPRP,-0.00623
16,RRIRKRPPRLPRPRPRPVPIPRP,0.177
17,RRIRPRPPRLPRPRPRPKFAPRP,0.409
18,RRIRIRPPRLPRPRPRPTFHPRP,-0.266
19,RRIRARPPRLPRPRPRPRQIPRP,0.313
20,RRIRRRPPRLPRPRPRPICIPRP,0.232
21,RRIRDRPPRLPRPRPRPDYKPRP,0.00454
22,RRIRARPPRLPRPRPRPRSAPRP,0.681
23,RRIRVRPPRLPRPRPRPRAIPRP,1.97
24,RRIRTRPPRLPRPRPRPDPPPRP,0.517
25,RRIRQRPPRLPRPRPRPNHYPRP,-0.36

row,Sequence,shrunken log2 fold change
1,RRIRARPPRLPRPRPRPRPDPRP,0.819
2,RRIRFRPPRLPRPRPRPDEVPRP,-0.00705
3,RRIRIRPPRLPRPRPRPIYQPRP,-0.00516
4,RRIRWRPPRLPRPRPRPPWGPRP,0.483
5,RRIRCRPPRLPRPRPRPIMAPRP,-0.236
6,RRIRHRPPRLPRPRPRPILFPRP,-0.148
7,RRIRPRPPRLPRPRPRPVRPPRP,0.854
8,RRIRCRPPRLPRPRPRPNTFPRP,-0.664
9,RRIRARPPRLPRPRPRPQKHPRP,0.0336
10,RRIRHRPPRLPRPRPRPGHAPRP,-0.0876
11,RRIRWRPPRLPRPRPRPRKWPRP,0.526
12,RRIRRRPPRLPRPRPRPNECPRP,0.0616
13,RRIRSRPPRLPRPRPRPFHGPRP,-0.00545
14,RRIRPRPPRLPRPRPRPNCFPRP,-0.0261
15,RRIRNRPPRLPRPRPRPADCPRP,0.131
16,RRIRDRPPRLPRPRPRPGWDPRP,-0.182
17,RRIRFRPPRLPRPRPRPRLNPRP,-0.228
18,RRIRVRPPRLPRPRPRPHSQPRP,0.288
19,RRIRMRPPRLPRPRPRPLPSPRP,0.942
20,RRIRTRPPRLPRPRPRPFMYPRP,-0.576
21,RRIRLRPPRLPRPRPRPLDVPRP,-0.205
22,RRIRIRPPRLPRPRPRPHTQPRP,-0.124
23,RRIRYRPPRLPRPRPRPGAYPRP,-0.292
24,RRIRQRPPRLPRPRPRPAYQPRP,-0.00193
25,RRIRKRPPRLPRPRPRPTVGPRP,0.197

row,Sequence,shrunken log2 fold change
1,RRIRGRPPRLPRPRPRPVVVPRP,0.985
2,RRIRKRPPRLPRPRPRPTFDPRP,0.227
3,RRIRKRPPRLPRPRPRPACEPRP,0.168
4,RRIRCRPPRLPRPRPRPGVEPRP,0.0401
5,RRIRLRPPRLPRPRPRPSSCPRP,-0.277
6,RRIRGRPPRLPRPRPRPRDAPRP,1.21
7,RRIRVRPPRLPRPRPRPVDPPRP,0.22
8,RRIRLRPPRLPRPRPRPMIHPRP,-0.186
9,RRIRRRPPRLPRPRPRPHGFPRP,0.114
10,RRIRKRPPRLPRPRPRPRSFPRP,-0.0333
11,RRIRSRPPRLPRPRPRPMCDPRP,-0.147
12,RRIRTRPPRLPRPRPRPSRMPRP,-0.0328
13,RRIRNRPPRLPRPRPRPTFSPRP,-0.269
14,RRIRDRPPRLPRPRPRPTIPPRP,0.0494
15,RRIRERPPRLPRPRPRPIHSPRP,-1.52
16,RRIRQRPPRLPRPRPRPSDHPRP,-0.298
17,RRIRRRPPRLPRPRPRPTDWPRP,0.414
18,RRIRNRPPRLPRPRPRPDLLPRP,-0.0183
19,RRIRIRPPRLPRPRPRPRYEPRP,-0.011
20,RRIRCRPPRLPRPRPRPKIHPRP,-0.558
21,RRIRLRPPRLPRPRPRPQMHPRP,-0.295
22,RRIRFRPPRLPRPRPRPIHYPRP,-1.14
23,RRIRVRPPRLPRPRPRPVWTPRP,0.155
24,RRIRFRPPRLPRPRPRPGRSPRP,0.183
25,RRIRMRPPRLPRPRPRPPPKPRP,2.03

row,Sequence,shrunken log2 fold change
1,RRIRPRPPRLPRPRPRPWVEPRP,0.17
2,RRIRLRPPRLPRPRPRPMSLPRP,-0.0224
3,RRIRIRPPRLPRPRPRPCCCPRP,-0.641
4,RRIRWRPPRLPRPRPRPQEYPRP,-0.0612
5,RRIRPRPPRLPRPRPRPSFAPRP,0.258
6,RRIRDRPPRLPRPRPRPWKEPRP,-0.0075
7,RRIRRRPPRLPRPRPRPLLGPRP,0.504
8,RRIRARPPRLPRPRPRPDKYPRP,1.5
9,RRIRARPPRLPRPRPRPWDLPRP,0.612
10,RRIRMRPPRLPRPRPRPYNLPRP,0.227
11,RRIRGRPPRLPRPRPRPSNSPRP,-0.203
12,RRIRMRPPRLPRPRPRPDTAPRP,1.24
13,RRIRARPPRLPRPRPRPKVGPRP,0.284
14,RRIRIRPPRLPRPRPRPNFLPRP,-0.677
15,RRIRGRPPRLPRPRPRPFWHPRP,0.297
16,RRIRGRPPRLPRPRPRPFWYPRP,-0.0145
17,RRIRIRPPRLPRPRPRPGSYPRP,-0.277
18,RRIRQRPPRLPRPRPRPLRTPRP,0.691
19,RRIRARPPRLPRPRPRPVNYPRP,-0.476
20,RRIRARPPRLPRPRPRPKEYPRP,-0.15
21,RRIRTRPPRLPRPRPRPPSLPRP,-0.11
22,RRIRHRPPRLPRPRPRPLLVPRP,-0.167
23,RRIRWRPPRLPRPRPRPDSPPRP,0.0588
24,RRIRFRPPRLPRPRPRPDRTPRP,-0.0783
25,RRIRWRPPRLPRPRPRPNIVPRP,-0.112
